Data reported in publication doi:10.1101/2025.08.22.671756, “Structural basis of Drosophila insulin receptor activation by DILP2 hormone” (bioRxiv, 2025).

Biological target: the molecule itself
Test: cryo-EM structure; dmIR-ECD 0.2 mg/ml in SEC buffer (25 mM HEPES pH 8.0, 200 mM NaCl) incubated with 40-fold molar excess of DILP2 at room temperature for 30 min; two conformers from subsets of the particles (3.75 Å and 6.25 Å maps)

B1: Drosophila melanogaster insulin receptor ectodomain (dmIR-ECD) (domain or fragment, UniProt P09208 291-1309, looked up)
chain: LPAHQQHLLHNDIADGLDKTALSVSGTQSRWTRSESNPTMRLSQNVKPCKSMDIRNMVSHFNQLENCTVIEGFLLIDLINDASPLNRSFPKLTEVTDYIIIYRVTGLHSLSKIFPNLSVIRGNKLFDGYALVVYSNFDLMDLGLHKLRSITRGGVRIEKNHKLCYDRTIDWLEILAENETQLVVLTENGKEKECRLSKCPGEIRIEEGHDTTAIEGELNASCQLHNNRRLCWNSKLCQTKCPEKCRNNCIDEHTCCSQDCLGGCVIDKNGNESCISCRNVSFNNICMDSCPKGYYQFDSRCVTANECITLTKFETNSVYSGIPYNGQCITHCPTGYQKSENKRMCEPCPGGKCDKECSSGLIDSLERAREFHGCTIITGTEPLTISIKRESGAHVMDELKYGLAAVHKIQSSLMVHLTYGLKSLKFFQSLTEISGDPPMDADKYALYVLDNRDLDELWGPNQTVFIRKGGVFFHFNPKLCVSTINQLLPMLASKPKFFEKSDVGADSNGNRGSCGTAVLNVTLQSVGANSAMLNVTTKVEIGEPQKPSNATIVFKDPRAFIGFVFYHMIDPYGNSTKSSDDPCDDRWKVSSPEKSGVMVLSNLIPYTNYSYYVRTMAISSELTNAESDVKNFRTNPGRPSKVTEVVATAISDSKINVTWSYLDKPYGVLTRYFIKAKLINRPTRNNNRDYCTEPLVKAMENDLPATTPTKKISDPLAGDCKCVEGSKKTSSQEYDDRKVQAGMEFENALQNFIFVPNIRKSKNGSSDKSDGAEGAALDSNAIPNGGATNPSRRRRDVALEPELDDVEGSVLLRHVRSITDDTDAFFEKDDENTYKDEEDLSSNKQFYEVFAKELPPNQTHFVFEKLRHFTRYAIFVVACREEIPSEKLRDTSFKKSLCSDYDTVFQTTKRKKFADIVMDLKVDLEHANNTESPVRVRWTPPVDPNGEIVTYEVAYKLQKPDQVEEKKCIPAADFNQTAGYLIKLNEGLYSFRVRANSIAGYGDFTEVEHIKVEPPPSYA
notes: Insulin receptor (dmIR), Drosophila melanogaster, ectodomain; Expressed from codon-optimised DNA for residues 264-1309 with an added start codon; the results name the construct 291Leu-1309Ala; Described as an (αβ)2 homodimer; N-glycans are visible in the maps; also called dmIR ectodomain; 291Leu-1309Ala dmIR-ECD construct; source: Sf9 (ExpiSf9) cells, baculovirus, conditioned media, purified …
binding result: binds
